Substrate in this series: N[C@@H]1[C@@H](O)[C@H](O)[C@@H](CO)O[C@H]1O
Put plainly: purified protein. Type of series: biochemical, Clostridium acetobutylicum. As to conditions: CoA C-terminal domain active site, Trp […], Glu […], Asp […].

B1: Glucosamine/glucosaminide N-acetyltransferase (GlmA) (Clostridium acetobutylicum ATCC 824) (protein)
chain: MEIKETYDFSSIVDLWNKNIGTVYPMNLELFKQNYINDRQRKKIMGAFNGEILIGFVIYKQWTYKSGSLKPNHKIGYINSIIVDINFRHQGIGTKLLDAAEEELINSGVKILRCGSDTYHFFPGIPLECLPSEEFFLVRGYKMQDYFYDLIGDVSKVDFKKPSIKDGFKVNVMKPEDRKGLFEFLEKSFSGRWLEEFIEFFQVGMKERDIVLIKYKTSVIGFSHIYDNKSSFIGPPIYWKALLGHNYGGLGPIGIDKTYRKQGLGRLLLYESLQILKKREVKKMVIDWTEKDIINFYGRFNFMPWKAYRKATKEVKDGKG
Take B1: the Km worked out at 210 ± 20 µM.

For the origin of these results see paper PMC5095700.
